The values that follow come from patent publication US5516515A, “Separation of alpha interferon receptor proteins and antibodies therefor” (priority 1990, dated 1996).

In series [1] the target is T1, Daudi cell receptor sites (Homo sapiens, UniProt P17181+P48551).
T1 construct: endogenous in cells; host or cells: Daudi (human lymphoblastoid) cells
T1 sequence (P48551 27-515): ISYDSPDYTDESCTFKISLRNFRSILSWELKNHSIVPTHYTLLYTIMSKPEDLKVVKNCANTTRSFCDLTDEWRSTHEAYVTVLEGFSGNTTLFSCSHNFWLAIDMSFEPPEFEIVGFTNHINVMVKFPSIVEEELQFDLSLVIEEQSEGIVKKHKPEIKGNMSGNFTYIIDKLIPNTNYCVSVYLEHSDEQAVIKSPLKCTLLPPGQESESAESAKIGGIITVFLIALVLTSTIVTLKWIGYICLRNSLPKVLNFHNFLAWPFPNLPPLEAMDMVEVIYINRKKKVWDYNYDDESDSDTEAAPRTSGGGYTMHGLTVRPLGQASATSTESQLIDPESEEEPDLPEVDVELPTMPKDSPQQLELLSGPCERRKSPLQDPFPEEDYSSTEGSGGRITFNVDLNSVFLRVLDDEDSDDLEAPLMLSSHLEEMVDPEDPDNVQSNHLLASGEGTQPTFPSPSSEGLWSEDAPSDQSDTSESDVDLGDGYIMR
T1 sequence (P17181 28-557): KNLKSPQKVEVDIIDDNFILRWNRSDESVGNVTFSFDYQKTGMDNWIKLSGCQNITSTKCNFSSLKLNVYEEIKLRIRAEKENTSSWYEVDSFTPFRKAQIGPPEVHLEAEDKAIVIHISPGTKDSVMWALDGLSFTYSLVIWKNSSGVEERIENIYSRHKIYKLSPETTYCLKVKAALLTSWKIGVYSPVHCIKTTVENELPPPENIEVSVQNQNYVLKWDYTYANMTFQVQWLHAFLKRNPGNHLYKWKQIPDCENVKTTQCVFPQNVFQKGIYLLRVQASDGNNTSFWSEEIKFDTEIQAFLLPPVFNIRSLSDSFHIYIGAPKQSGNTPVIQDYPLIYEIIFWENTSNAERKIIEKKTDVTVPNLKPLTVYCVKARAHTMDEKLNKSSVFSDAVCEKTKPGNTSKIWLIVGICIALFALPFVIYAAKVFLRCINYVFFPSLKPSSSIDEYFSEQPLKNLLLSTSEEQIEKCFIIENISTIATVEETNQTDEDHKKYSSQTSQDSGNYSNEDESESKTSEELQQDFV
The series can be described thus: Competition experiments: displacement of 125I-IFN-alpha-2 from Daudi cells. The settings on record: 100 fold excess of unlabeled IFN. The format is binding. In general terms: Displacement assays read how much labelled ligand stays bound in the presence of the test substance.

Series [2] has as its system human HEp-2 cells challenged with vesticular stomatitis virus (Indiana Strain). Kind of series: cytopathic effect (CPE) assay of interferon biological (antiviral) activity. The settings on record: NIH reference units. The format is cell-based. As for the experimental part:
Ultrapure natural interferon alpha was prepared by incubating human peripheral blood cultures with Sendai virus. The culture supernatant was purified over an anti-interferon alpha column (NK-2 sepharose). […] The biological activity of interferons alpha, beta and gamma were determined by the cytopathic effect (CPE) assay on human HEp-2 cells challenged with vesticular stomatitis virus (Indiana Strain). All titers were calibrated against the NIH reference standards for alpha (#Ga23-902-503) and gamma (Gg 23-901-530) interferons. All titers are expressed as NIH reference units.
In general terms: Cytopathic effects are the visible damage that an infection or toxin causes in cultured cells.

B1: IFN gamma: Human IFN gamma produced in human peripheral blood cultures containing lymphocytes stimulated with phytohemagglutinin, purified by affinity chromatography (protein, UniProt P01579 24-161, looked up)
Interferon gamma: QDPYVKEAENLKKYFNAGHSDVADNGTLFLGILKNWKEESDRKIMQSQIVSFYFKLFKNFKDDQSIQKSVETIKEDMNVKFFNSNKKKRDDFEKLTNYSVTDLNVQRKAIHELIQVMAELSPAAKTGKRKRSQMLFRG
Consider B1, for which, in series [1], the “reduction in the binding of 125I-IFN-alpha2 for Daudi cells” value is given as “does not compete”. Moreover, in series [2], the specific activity is 2×10^7 U/rag of protein.
